{
  "source": "patent US9766245B2",
  "about": "“Method of detecting cancer based on glycan biomarkers” (California Institute of Technology, priority 2013, dated 2017)",
  "tested_on": "glycosylated synapsin I",
  "test": "Lectin affinity chromatography with UEAI",
  "assay_type": "binding, rat",
  "settings": "olfactory bulb lysate (500 μg), Western blotting",
  "protocol": "Lectin Affinity Chromatography with UEAI.\nUEAI lectin conjugated to agarose (Vector Laboratories) or control protein A conjugated to agarose (Vector Laboratories) was packed into a minicolumn (50 μL bed volume; Bio-Rad), and the columns were run in parallel. The resin was equilibrated with 10 column volumes of lectin binding buffer (100 mM Tris pH 7.5, 150 mM NaCl, 1 mM CaCl2, 1 mM MgCl2, 0.5% NP-40, and 0.2% sodium deoxycholate supplemented with EDTA-free Complete™ protease inhibitors). Olfactory bulb tissue from P3 rat pups was lysed in lectin binding buffer by sonication on ice. The lysate was clarified by centrifugation at 12000×g for 10 min, and the total protein concentration was determined using the BCA protein assay (Pierce). Lysate (500 μg) was bound batch-wise with gentle end-over-end mixing at rt for 4 h. The agarose was then allowed to settle, and the flow-through was passed over the column three additional times. The columns were washed with 40 column volumes of lectin binding buffer, followed by 10 column volumes of lectin binding buffer lacking detergent. […] Following concentration, samples were boiled in 1× sample buffer (35 μL of 200 mM Tris pH 6.8, 400 mM DTT, 8% SDS, 0.2% bromophenol blue, and 40% glycerol) and analyzed by SDS-PAGE and western blotting as described above. Synapsin I was detected using mouse anti-synapsin I ascites (Synaptic Systems) at 0.1 μg/mL.",
  "note": "“Also recorded” adds a separate entry of the source.",
  "data": [
    {"molecule": "UEAI: lectin conjugated to agarose used for affinity chromatography (protein) SDDLSFKFKNFSQNGKDLSFQGDASVIETGVLQLNKVGNNLPDETGGIARYIAPIHIWNCNTGEVASFITSFSFFMETSANPKAATDGLTFFLAPPDSPLRRAGGYFGLFEDTKDNDSSYQTVAVEFDTIGSPVNFDDPGFPHIGIDVNRVKSINAERWNKRYGLNNVANVEIIYEASSKTLTASLTYPSDQTSISVTSIVDLKEILPEWVSVGFSGGTYIGRQATHEVLNWYFTSNLINTNS", "values": [
      {"measurement": "capture and detection of glycosylated synapsin I", "value": "failed to pull-down and detect glycosylated synapsin I; also recorded: failed to capture and detect glycosylated synapsin I"}
    ]}
  ]
}
